Where “and” joins values, the source holds several entries; their conditions need not be identical. Identical values can stand only once.

Assay [1] has as its target T1, recombinant cynomolgus (cyno) complement C2 (XP_005553508.1), C-terminal 6His-tag, made in house (CHO cell … (cynomolgus monkey (Macaca fascicularis), UniProt P06681 21-752 (human entry))).
T1 construct: also called cyno C2; Cyno C2
T1 chain: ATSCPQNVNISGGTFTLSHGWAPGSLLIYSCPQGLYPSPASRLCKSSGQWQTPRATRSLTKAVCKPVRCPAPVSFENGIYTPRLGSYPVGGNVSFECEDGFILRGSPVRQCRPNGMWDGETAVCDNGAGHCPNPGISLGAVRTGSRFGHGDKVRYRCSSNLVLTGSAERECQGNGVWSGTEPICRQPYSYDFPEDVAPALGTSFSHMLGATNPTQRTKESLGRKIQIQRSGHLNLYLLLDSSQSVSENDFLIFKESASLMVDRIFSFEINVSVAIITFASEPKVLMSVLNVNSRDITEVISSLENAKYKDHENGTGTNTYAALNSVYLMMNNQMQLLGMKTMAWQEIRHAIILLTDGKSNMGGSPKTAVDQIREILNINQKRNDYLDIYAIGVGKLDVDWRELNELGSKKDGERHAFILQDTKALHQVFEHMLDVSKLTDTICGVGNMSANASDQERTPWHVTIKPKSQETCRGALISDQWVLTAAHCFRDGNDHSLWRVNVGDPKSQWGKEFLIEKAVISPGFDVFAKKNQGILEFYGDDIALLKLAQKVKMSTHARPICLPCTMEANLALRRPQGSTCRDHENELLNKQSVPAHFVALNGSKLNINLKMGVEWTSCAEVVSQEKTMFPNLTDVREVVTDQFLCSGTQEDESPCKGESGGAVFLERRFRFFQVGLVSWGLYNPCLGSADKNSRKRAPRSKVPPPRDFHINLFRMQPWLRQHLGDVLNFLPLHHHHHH
In words: BLI (Gator); ratio of dissociation at pH 5.8 to pH 7.4. As to the method:
(§1) The histidine mutant constructs in Table 4 were tested for their pH-dependent dissociation from human C2. Probe-immobilized anti-C2 antibodies were incubated with C2 at pH 7.4 for 600s, followed by a 600s dissociation period in K Buffer at pH 7.4 or pH 5.8. The data were processed and analyzed by the Gator evaluation software.
(§2) Non-fusion mAb were used for comparison.

The target of assay [2] is T2, recombinant human complement C2 (NP_000054.2), C-terminal 6His-tag, made in house (CHO cell expression) (human, UniProt P06681 21-752).
T2 construct: a linker before the tag is not described; also called human C2; Human C2
T2 sequence: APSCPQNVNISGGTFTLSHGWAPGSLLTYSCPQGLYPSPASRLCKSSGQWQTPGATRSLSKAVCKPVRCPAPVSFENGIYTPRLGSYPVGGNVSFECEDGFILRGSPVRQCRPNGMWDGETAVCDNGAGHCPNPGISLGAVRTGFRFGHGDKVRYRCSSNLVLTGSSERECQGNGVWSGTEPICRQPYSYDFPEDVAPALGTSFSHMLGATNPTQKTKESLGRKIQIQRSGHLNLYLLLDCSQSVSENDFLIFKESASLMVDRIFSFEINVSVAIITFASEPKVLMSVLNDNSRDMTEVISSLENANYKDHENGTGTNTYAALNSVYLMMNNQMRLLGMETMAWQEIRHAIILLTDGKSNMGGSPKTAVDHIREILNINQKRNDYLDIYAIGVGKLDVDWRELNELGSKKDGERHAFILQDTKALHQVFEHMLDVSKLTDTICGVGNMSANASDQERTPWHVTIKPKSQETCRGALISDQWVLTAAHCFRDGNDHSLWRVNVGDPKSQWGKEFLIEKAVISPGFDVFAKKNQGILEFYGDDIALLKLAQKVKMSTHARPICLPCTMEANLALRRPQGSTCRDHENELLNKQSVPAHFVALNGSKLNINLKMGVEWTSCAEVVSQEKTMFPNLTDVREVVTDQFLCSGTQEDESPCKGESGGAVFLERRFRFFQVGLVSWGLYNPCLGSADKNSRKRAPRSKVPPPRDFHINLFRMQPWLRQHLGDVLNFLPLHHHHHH
Briefly: binding kinetics, neutral pH (BLI presumed).

For assay [3], the target named is T1, recombinant cynomolgus (cyno) …. In words: BLI (Gator), antibody on probe; 600 s association at pH 7.4, 600 s dissociation at pH 7.4. How it is done:
as §1, §2

The target in assay [4] is T2, recombinant human complement C2 …. The description is as above. How it is done: as §1, §2
For assay [5], the target named is T1, recombinant cynomolgus (cyno) …. Briefly: binding kinetics (BLI presumed).
Assay [6] concerns the target T3, human complement C2 in normal human serum (human, UniProt P06681 21-752).
T3 sequence: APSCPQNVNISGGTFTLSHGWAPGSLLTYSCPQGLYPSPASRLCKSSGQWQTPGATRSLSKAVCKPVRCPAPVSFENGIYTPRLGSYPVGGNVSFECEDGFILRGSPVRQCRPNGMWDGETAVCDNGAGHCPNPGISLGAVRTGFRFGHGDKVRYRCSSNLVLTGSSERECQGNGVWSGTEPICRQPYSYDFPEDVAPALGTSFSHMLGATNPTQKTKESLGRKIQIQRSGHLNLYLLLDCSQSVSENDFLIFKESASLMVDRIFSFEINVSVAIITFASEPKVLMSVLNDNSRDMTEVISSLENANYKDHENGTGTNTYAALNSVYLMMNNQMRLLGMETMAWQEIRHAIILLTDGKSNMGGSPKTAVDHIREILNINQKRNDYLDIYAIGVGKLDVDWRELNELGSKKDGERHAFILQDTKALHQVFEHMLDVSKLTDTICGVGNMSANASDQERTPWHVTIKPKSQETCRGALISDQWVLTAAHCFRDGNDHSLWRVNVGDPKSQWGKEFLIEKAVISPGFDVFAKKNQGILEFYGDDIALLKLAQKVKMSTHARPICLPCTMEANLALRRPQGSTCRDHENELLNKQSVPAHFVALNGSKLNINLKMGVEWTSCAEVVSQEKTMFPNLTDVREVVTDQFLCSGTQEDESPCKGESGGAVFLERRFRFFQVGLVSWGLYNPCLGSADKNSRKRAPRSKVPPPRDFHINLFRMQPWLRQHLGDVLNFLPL
In words: cell-based or functional assay.

B1: anti-C2 antibody 3.2 (antibody, IgG4, V domains shown)
VH: EVQLLESGGGLVQPGGSLRLSCAASGFTFRHYAMSWVRQAPGKGLEWVSLISGSGASTFYADSVKGRFTISRDNSENMLYLQMNSLRAEDTAVYYCAKDSLAVAGSEYFQHWGQGTLVTVSS
VL: SYVLTQAPSVSVAPGQTARITCGGNYFGGKSVHWYQQRPGQAPVLVVYDDSDRPSGIPERFSGSKSGNTATLAISRVEAGDEAAYYCQVYDTSSDHWVFGGGTKLTVL
notes: Recombinant; also called WT; "WT" 3.2
As a reminder, the Kd is the constant that tells how readily two partners part at equilibrium. A word on the koff: it is a measure of how fast the partners let go of each other. Broadly, the kon is the second-order rate constant of association. On to B1, for which the “Fold dissociation pH 5.8/pH 7.4” value in assay [1] came out at 2.7 fold. Also, in assay [2], the Kd was 198 pM and 98.4 pM; the koff was 6.12e-05 s⁻¹ and 3.73e-05 s⁻¹; the kon was 308000 M⁻¹ s⁻¹ and 379000 M⁻¹ s⁻¹. In addition, the “Dissociation (%) pH 7.4” value in assay [3] was determined as 5.37%. Further, the “Dissociation (%) pH 7.4” value in assay [4] amounted to 5.27%. Also, in assay [5], the Kd was found to be 126 pM, the koff came out at 5.82e-05 s⁻¹ and the kon is 461000 M⁻¹ s⁻¹. For the same molecule, the “IC50, inhibition of sheep RBC lysis, 5% serum” value in assay [6] was 2900 pM.

B2: anti-C2 antibody 69.44 (antibody, IgG4, V domains shown)
VH: QVQLVQSGAEVKKPGASVKVSCKASGYSFTTYYMYWVRQAPGQGLEWMGIITPSGGSTTYAQKFQDRVTMTRDASTTTVYMELSSLRSEDTAVYYCARGYEGSYGFDHWGQGTLVTVSS
VL: SYELTQPPSVSLSPGQTASITCSGDKLGNKYTCWYQQKPGQSPVLVIYQDNKRPSGIPERFSGSNSGNTATLTISGTQAMDEADYYCQTWDSSTAVFGGGTKLTVL
notes: Recombinant
For the molecule B2, the “Fold dissociation pH 5.8/pH 7.4” value in assay [1] came out at 1.5 fold. Moreover, in assay [2], the Kd is 296 pM, the koff stood at 5.85e-05 s⁻¹ and the kon worked out at 197000 M⁻¹ s⁻¹. Besides, in assay [3], the “Dissociation (%) pH 7.4” value stood at 4.81%. In addition, the “Dissociation (%) pH 7.4” value in assay [4] is 3.15%. In assay [5], the Kd amounted to 304 pM, the off-rate constant (koff) was determined as 5.89e-05 s⁻¹ and the kon came out at 194000 M⁻¹ s⁻¹. Also, the “IC50, inhibition of sheep RBC lysis, 5% serum” value in assay [6] stood at 2800 pM.

For the origin of these results see patent US20250376539A1 (KIRA PHARMACEUTICALS SUZHOU, published 2025).
